According to PMC6049616:

Target: semiSWEET
Test: native MS

stoichiometry N: 2
Substance: semiSWEET (natural protein)
